Experimental data as given in paper doi:10.1101/2021.07.06.451223 (bioRxiv, 2021).

What was measured:
crystal structure = target: the molecule itself; test: crystal structure
turbidity assay = target: the molecule itself; test: turbidity assay

Row | Protein | stoichiometry N (crystal structure) | binding result (turbidity assay)
1 | CASQ1 S248E (amino acids 35-396) (natural protein, human, UniProt P31415 35-396, looked up) QEGLDFPEYDGVDRVINVNAKNYKNVFKKYEVLALLYHEPPEDDKASQRQFEMEELILELAAQVLEDKGVGFGLVDSEKDAAVAKKLGLTEVDSMYVFKGDEVIEYDGEFSADTIVEFLLDVLEDPVELIEGERELQAFENIEDEIKLIGYFKSKDSEHYKAFEDAAEEFHPYIPFFATFDSKVAKKLTLKLNEIDFYEAFMEEPVTIPDKPNEEEEIVNFVEEHRRSTLRKLKPESMYETWEDDMDGIHIVAFAEEADPDGFEFLETLKAVAQDNTENPDLSIIWIDPDDFPLLVPYWEKTFDIDLSAPQIGVVNVTDADSVWMEMDDEEDLPSAEELEDWLEDVLEGEINTEDDDDDDDD | 2 | –
2 | CASQ1 S369E (amino acids 35-396) (natural protein, human, UniProt P31415 35-396, looked up) QEGLDFPEYDGVDRVINVNAKNYKNVFKKYEVLALLYHEPPEDDKASQRQFEMEELILELAAQVLEDKGVGFGLVDSEKDAAVAKKLGLTEVDSMYVFKGDEVIEYDGEFSADTIVEFLLDVLEDPVELIEGERELQAFENIEDEIKLIGYFKSKDSEHYKAFEDAAEEFHPYIPFFATFDSKVAKKLTLKLNEIDFYEAFMEEPVTIPDKPNSEEEIVNFVEEHRRSTLRKLKPESMYETWEDDMDGIHIVAFAEEADPDGFEFLETLKAVAQDNTENPDLSIIWIDPDDFPLLVPYWEKTFDIDLSAPQIGVVNVTDADSVWMEMDDEEDLPEAEELEDWLEDVLEGEINTEDDDDDDDD | – | binds
3 | CASQ1 S248/369E (amino acids 35-396) (natural protein, human, UniProt P31415 35-396, looked up) QEGLDFPEYDGVDRVINVNAKNYKNVFKKYEVLALLYHEPPEDDKASQRQFEMEELILELAAQVLEDKGVGFGLVDSEKDAAVAKKLGLTEVDSMYVFKGDEVIEYDGEFSADTIVEFLLDVLEDPVELIEGERELQAFENIEDEIKLIGYFKSKDSEHYKAFEDAAEEFHPYIPFFATFDSKVAKKLTLKLNEIDFYEAFMEEPVTIPDKPNEEEEIVNFVEEHRRSTLRKLKPESMYETWEDDMDGIHIVAFAEEADPDGFEFLETLKAVAQDNTENPDLSIIWIDPDDFPLLVPYWEKTFDIDLSAPQIGVVNVTDADSVWMEMDDEEDLPEAEELEDWLEDVLEGEINTEDDDDDDDD | – | binds
